The DeepSol protein solubility set

assay: soluble on expression in E. coli; label from the status in PepcDB or PDB records

Soluble on expression in E. coli, not soluble:
MGSDKIHHHHHHMNQSKTAIVIDSSANIAPEIVRKYHFTIVNQPVMFGKHVYHENMDIDSDEFYRMLKLEKYHPTASQIPMKEMQEVFSNLAQAGYEAALCIGLSGGLSGFINSVSASVPAIKDLQVYPYDSGSILAGVEKVAILASHLLDNGVDIHEVLHQMRKYRRQTQAYIAVNNIKELQNMGNISNRTSLVGSFFGMRPILTINHQGRLEMVGKERQMKNAMEAIEEIFDKQLVDHTNLVVTVIDANDVDRSMQWQSTLKAKYPGMQVESQQIGPYVGTYTGSKAIGLIWSPKL, MGSDKIHHHHHHMNQSLRPDKAALVELFRDFIEPQYVINDEETQKPFECDGLSVYCDMPLITVLPKTVEQVCEVMRICYRYQIPVVARGAGTGLCAGAMPNPDGVLLVLSRFKHILDIDPLARSARLQPGVRNLAISEAASPYGLYYGPDPSSQIACSIGGNVAENSGGVHCLKYGLTTHNLLKIEMVTVEGELITIGSEGLDSNGFDLMALITGSEGLLGVITEVTVKLLPSPEKAQVIMAGFDNVQTAGDAVGGVIAKGIIPAGLEMMDSPAIIAAEAFAHAGYPTDAQALLLCELDGSEAEVQEQIAEVEQLFIELGATTTRVSQSEAERALLWKGRKSAFPAVGRISPDYYCMDGTIPRSQLAHVLTEMQKLSEQYGLRVANVFHAGDGNLHPLILFDANVPGELERTEEFGSRILELCVKVGGCITGEHGVGVEKIRQMTIQFNDQELTQFHAIKHAFDPIGTLNPGKGIPVLKRCQEYRTLDRPQHKHDSQPQQGDLA, MGSDKIHHHHHHMNRPLFDLDLLRALVMVADCGSFTTASARLHSTQSTVSQKVRRLEEIAGHRLLDRGTRDVRPTDAGVTVLSYARRMIALNDEMLEALSGATVALTIRLGVPDDFAAGRTTHALAAFKRDHPQVKLEVTCGLSRDICAAYDRGELDLVLIKQRRDSREAVVRWPEKLRWIDSARHPTIELDPVPLVVFPPRGLYRDDMIKAIEERGRRWRISFTTSSLSGIQAAVADGLGISVLPARAVTDDHVVLTDEHGGFAPIGNMDIAILHRPTADPMVSELTKALAAMLEHEPE, MGSDKIHHHHHHMNSKYNFQYFQGSSLSDLFAQDITDGSYGFILNYPATASWAAYPNRKKYFIQDGSSEASKTSFDKICQKEPWKNLAVLGDRIPGIVIIPPPKPLLEYWQEHFGFKHSNIEMMDCSTYLDDLSHSDRFDKLITLFPFDCLKPEKHAVTSDTHYRLLSKVTLEEIGVQCPKYKSYNLHQVNIVDIQLPQFPYLIKTSHGLSGEGTYIIKNPSDLNYCLEEINKYLDIKLLDTIIVSEFIKNEVQNYCVQFYVNKAGEITLIGTTGQLVTPEGNYLGGVIDYGKTDMSKFFEMIANVGDYAHKQGYFGVIGFDVLENQDGQFYAIDANFRVNGSTPLCLQRHTLLRLGKEVAKYSSSYRMEGTLESILITLKPELDRKDLIILSALEKAKYGKIYTELYAIVTGETIAQMQYIEQQLQTKGLQLLS, MGSDKIHHHHHHMNSLEQLRQAEQALLEIFSGIDAQVKQNLKRVLEAFRNQRVGAHHFAGVSGYGHDDLGRETLDKVFAEVMGAEAAAVRVQFVSGTHAIACALFGVLRPGDEMLAVVGSPYDTLEEVIGLRGQGQGSLIEFGIKYRQLELTSQGSIDWQTLSTSITDNTRLVLIQRSCGYSWRPSLSIADIEKVVNLVKQQNPDTVCFVDNCYGEFIETQEPTHVGADLMAGSLIKNPGGTIVTAGGYVAGRADLVEAAACRLTAPGIGSYGGATFDQNRLLFQGLFLSPQMVGEAMKGTHLTGYVFDKLGYPVNPAPLAPRGDVIQAIKLGSGKKLIAFCKAVQQNSPVGSYLDPVPDDMPGYESQVVMAGGTFIEGSTLEFSADGPLREPYVVYCQGGTHWSHVAIALEAAIDAVGEA, MGSDKIHHHHHHMNSMDATAAHHTSPNATLVYDIRHSRYLNITGRCTLRCGFCPKQQGSRQIHQYQLALDKQPGVDDLLPLLGDVDTFDEYVFCGYGEPTLNLPTLLGVARAIKSQGGRIRVNTDGLGNLFHKRNILPELADCVDALSVSLNAQDEFTYLKHCQPRLKGSWQAVNDFIRMAPAYIKRVEVSAIDGLPGVDIPACRALVEAAGCTFKHRKLDIMG, MGSDKIHHHHHHMNTDLTLVIMAAGLGSRFGGDKQLASLGPSGEPMLVLSILSAIRSGFQRAVLVIRPELEAELTGILTQFLPANFEYHFCYQSLSDLPQDAKLADLSHRLKPWGTAHALWCARDWVKGPMAVINADDFYGDSAFASLAKGLTARPNDWMMVAYPIELTLSEHGGVNRGLCQVAQGQLRSVAEWLNIQAQDDGFVGEGPNGLAKLPLQSLVSMTCWGFSPSIFNVIKQQLTAFIEQQGQLPKSECYLPAVVQAAIEQGVPVYVDVASEPWLGVTYPQDTVWVKQKLMELLGDKTH, MGSDKIHHHHHHMNTKDLAYFDELISQKNFSKVAKTFGVSQPTVTTAIKRLESEFGAPLVIRDRVKNTLHVTASGAQLAEHAKIVLHELRLAHQEIDNLSQNRLILGLPPIIENHYFPKIGARLAAEGLLAGLETIEGGSIWLRNAVRDGRVDMTLLGSVEPLAYQTLIAEEFDRQPFCIYVSKQHPLAQRKRVYFNELRREKFVFFNSNFIHNTAFNKLTRRNHFRPNIVFRSNDTHVLMKLIGENVGIGFFTKIVDHYRTDVVRLDLMDIEPPEFITSIVYRTTHILTPVQQQLLTILHETLAVDTDQTD, MGSDKIHHHHHHMNWESTPVLMLTPFHHMQRGNTLTTLRLQTALRQRGFTVDLLSLEEKGWRDSLREYLINGKYSLVHGFNARYFGGVLTEFPELRNLPLILTTTGSDLNYDLKNSGRDLVLAAFAAAEKIIVFHDYFQKLIGDAYPEYCSKLSTIPQGVWLEESPPIKREMIGLAADNIVFALPSGLRPVKDIELAIDGLQRVYKDFPELRLLIIGPVIDRDYGQKIKQRVSELNWVFYLGEVLHSDMGNYLSLADVILNTSQAEGQPQGLLEGMSQNKPAILTAVPGNLDIIEEGRQGYYVRNQEELAVAARKMLSSAESRQRMGWEAGKLVKEKFSLAREIQSYAELYRQVLSP, MGSDKIHHHHHHMNWMDQPDLYSRYKIFLEILQSKEHISLFDPRLKRYTDILIDLEKPFTTWSTPNHIILVHKTLCLRHFPNKYESSAKRPVLILPPQAGHHSNLADYSPAQSLVRVFHRYGYDVYVTQWLSATTEYKDLGIEDYIRLTDEAVEEVRKRTGVYKIHLVGQCQGGWQASIYTSLFPDKISTLVSAAAPIDVNAKPSPIVEYAQKLSIDVFRFMVNSGGGVMPGKFILQGFKSMQPEEHYVRKYFRLWQMIKEGDEDGVKRFIHFENWYQYTQNLPGRFYLEIVKNIFKENNLTKPGSFQLDGRPVDLRNISCPVIIMAGKKDHITPPEQAFALKNYISTPAADVIEILTEGGHIGTLMGTESLREDWTAVNEVLKLAI, MGSDKIHHHHHHMNYQQLFRNRLAVLATMHQKEKVIAPLLEQELGIKVIVPPDFNTDIFGTFTREVKRPGTQIAAARLKAEKVLELTGENLAIASEGSFAPHPLVPYIYSNREIIILLDKINDIEIIGEEFSTYTNFNHQAVESLDEAYTFAKKVGFPEHGLVVWFENSEKKCHEIIKGITQETALIEAINFGLEKSPNSKINLETDMRAIYNPTRMKNIEKATHNLLQKISSCCPQCHTPGFETTERIKGLPCELCHTPTTLTLRAIYQCKKCGFRQDKLFPNGIEFADPSQCVYCNP, MGSDKIHHHHHHMPARIQPTARQVRLGAELRKLRDAAGLTSRQAAALLGTNPAQMSQIEAGNAGVSGERVRKLGVQYASADMELVDALVEMATDRTRGWWEEYRDVLPPVFQDLAELEHHATFMRVVGTVHVPGLLQTQEYARAVFAYVVPELPVDELDLRVRHRMRRKLVLSERTVPYEAVIHESVLRTRVADRRVAVAQLDELLSQSERPNVSLRVIPFGVDGFAGAGAMMLYAGGRVPALDTVQRDAPYGSVFLDASAQLLAMRTLFRRVESAALPPAKSRDYIHRLTKEL, MGSDKIHHHHHHMPEAAFTHERRCSSLCAFVSSSQSPTTNAETIREARSSRCDKTSMTPSFKELKSRFGLDEINTTDAYIIEALIIMAAISLMMSRVIVDELRSLEARQREVEAAADADESASRLPRRRCSLAVERHAHLIQLYLMVELGYELPDLDELLLWASRNPNPHRDRLREQVERGEFGFGRH, MGSDKIHHHHHHMPEHDVRLQQLTVWLDEQLNDLFRDNAWGEVPAGSLTAASSDASFRRYFRWQGAGHSFVIMDAPPPQENCRPFVAIDHLLASADVHVPLIHAQDLERGFLLLGDLGTQTYLDIINADNADGLFADAIDALLKFQRLPMDAPLPSYDDALLRREVELFPEWYVGRELGLTFTDAQKATWQRVSQLLIDSALAQPKVLVHRDYMPRNLMQSTPNPGVLDFQDAVYGPVTYDITCLFKDAFVSWPQARVEGWLGDYWQQAQAAGIPVHAEFEAFHRASDLMGVQRHLKVIGIFARICHRDGKPRYLGDVPRFFAYINEVIGRRPELAELGELIAELQAGARA, MGSDKIHHHHHHMPIIATAAWSIPKKVADRFAQGGSSLTRYASVFDGVEVNSTFYRRHKTSTFATWEHSVPDAFRFAVKIPKEITHTSAMRDIAEPFDTFLEDIAPLGEKRGPLLCQLPPSLTFDVEVLQTAFKTMRDADDGPIVIEVRHKSWASAEALDLLKTYRIDRVLADPAPVWPVEDFDTPPKYVRLHGKPKIYYSSYTDDEIKSFSALLAPDSWCVFDNTASGAAIENALNMAEIR, MGSDKIHHHHHHMPKTISEQNLLRLIDTLVNEGKRVIGPKAAGTMTLYEPLATGEELNLGELPRRSAKETFFPLCETILTYERDREGVRVTDVDPGAIPETVLVAARPCDVAAAPVLDSVFSWDYQDEFYLSRRGKTTIIGLACARADDACFCTAVGLSTNDTKGSDLFLTTLTGGGYRCDVITDKGMALLAAHGGLFAEGDGTPAPLAEPALGKLDLEKIKQWLDNHFEDPLWEEIAERCAGCGACAFLCPACHCFDINDEGGEKKGARRKSWDACGFGKFTNHASGHNPRDVQPQRYRNRIMHKFKYYVDKFDQRLCTGCGRCIRACPVGIDIAEILSAIGTRDQGPGTGKD, MGSDKIHHHHHHMPLFTEAPKSLCILRLSAVGDVCHALAVVQHIQEYYPQTEMTWIVGKTEMGLLSSIPNITLIPYDKKTGWKGVLSLWKQLKNKQFDALLNMQTAFRASILSLGIKAKFKIGFGEKRSREGQWLFVNRRIRDPFSPHVLDGFMAFAEYIGVPKAEPKWELAISQDDYKFADQFIDFSRKNLLISPCSSKAEKDWLIEGYAEVANIAHQHNINVIFCSSPAKRELEIVEKITALCHFTPTNIAGKTNLKQLTALISKVDLVLSPDSGPAHIATTQGTPVIGLYAYHNPLRTAPYNNLDNVVSVYEENAQKEFGKPSSELPWATKLKGKNLMTEIQVEPVIGQMKKLGLF, MGSDKIHHHHHHMPLQQESARQERKPVILMSMGQQDRNGHAYQVMTHKYMQPVVDISDCIPLLIPTCFGVADIEQYLDMADGVYLSGAASNIDPSLYGQENLTPEKKQDLARDLVDIALIKGAVKRGLPILGICRGMQEMNIAFGGDLYQKVHDEDHLNDHREDPDTPPDVQYGASHSISMVKGSWLHKLLGDTIEVNSLHGQGIKTLGKGLEALALAEDGLVEALHAPYLPQFTLGVQWHPEWKALENPDSIKIFKAFGEACRRRAGSALDLRIDKAS, MGSDKIHHHHHHMPNDTHTTQANVDPAEIAKFEAMAQSWWDPNGEFKPLHQLNPLRLNYIDSTAGGIFAKKVLDVGCGGGILSESMAKLGANVDGIDMGEAPLEVARLHALESGVMVNYHKTTAEAHSASHANHYQVVTCMEMLEHVPDPQSVIQACCDMVEPGGFVFFSTINRNMLSYVQAILGAEYLLKLLPIGTHDHSKFIRPSELMAMVDNTDLICKDALGISFNPLTSIFSYTKSLEVNYMIATQKMAD
